{"source": "patent US20200113969", "key": {"[1]": {"biological_target": "peak 3 of the RP-HPLC fractionation of L. albus deflamin (UniProt F5B8W8)", "sequence (F5B8W8 whole entry, looked up)": "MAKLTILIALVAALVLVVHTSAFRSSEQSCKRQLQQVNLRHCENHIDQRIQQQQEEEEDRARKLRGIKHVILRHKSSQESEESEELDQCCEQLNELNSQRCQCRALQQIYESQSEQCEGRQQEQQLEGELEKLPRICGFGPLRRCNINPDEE"}, "[2]": {"test_system": "peak 4 of the RP-HPLC fractionation of L. albus deflamin"}, "[3]": {"test_system": "deflamin isolated from Lupinus albus seeds", "sequence (chain, as listed by the source, chain 1 of 2)": "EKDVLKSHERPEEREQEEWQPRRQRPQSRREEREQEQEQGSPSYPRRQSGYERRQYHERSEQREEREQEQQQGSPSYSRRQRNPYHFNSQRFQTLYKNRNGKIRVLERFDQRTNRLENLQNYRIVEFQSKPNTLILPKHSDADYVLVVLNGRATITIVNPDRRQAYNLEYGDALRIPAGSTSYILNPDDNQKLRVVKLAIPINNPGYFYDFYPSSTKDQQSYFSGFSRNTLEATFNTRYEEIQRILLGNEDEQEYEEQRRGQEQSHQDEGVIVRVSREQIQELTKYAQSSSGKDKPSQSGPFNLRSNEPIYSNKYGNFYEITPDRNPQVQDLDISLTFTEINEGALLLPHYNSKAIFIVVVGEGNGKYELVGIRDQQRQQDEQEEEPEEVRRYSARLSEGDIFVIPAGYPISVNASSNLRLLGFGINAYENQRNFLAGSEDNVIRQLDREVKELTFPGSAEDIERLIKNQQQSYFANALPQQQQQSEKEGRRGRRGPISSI", "sequence (chain, as listed by the source, chain 2 of 2)": "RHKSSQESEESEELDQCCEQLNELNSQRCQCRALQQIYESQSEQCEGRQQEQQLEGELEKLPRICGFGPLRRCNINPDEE"}, "[4]": {"test_system": "peak 1 of the RP-HPLC fractionation of L. albus deflamin"}, "[5]": {"biological_target": "peak 2 of the RP-HPLC fractionation of L. albus deflamin (UniProt F5B8W8)", "sequence (F5B8W8 whole entry, looked up)": "as the sequence (F5B8W8 whole entry, looked up) above"}}, "data": [{"substance": "MMP-9 (commercial enzyme, Sigma)", "values": [{"measurement": "MMP-9 proteolytic activity, DQ fluorogenic assay, 25 µg/ml", "setting": "[1]", "value": "all the selected peaks presented some degree of MMP inhibition and also inhibited invasion, but peak 3 was the one with the highest observed activities"}, {"measurement": "MMP-9 proteolytic activity, DQ fluorogenic assay, 25 µg/ml", "setting": "[2]", "value": "all the selected peaks presented some degree of MMP inhibition"}, {"measurement": "MMP-9 proteolytic activity on DQ-gelatin, deflamin at 50 µg/mL", "setting": "[3]", "value": "the highest inhibition (P<0.05) detected for deflamin, which induced a reduction greater than 80% of MMP-9 activity"}, {"measurement": "MMP-9 proteolytic activity, DQ fluorogenic assay, 25 µg/ml", "setting": "[4]", "value": "all the selected peaks presented some degree of MMP inhibition"}, {"measurement": "MMP-9 proteolytic activity, DQ fluorogenic assay, 25 µg/ml", "setting": "[5]", "value": "all the selected peaks presented some degree of MMP inhibition"}]}]}
